Entries after “also recorded” stand apart in the source; their conditions may differ.
B1: muscarinic toxin 3 (protein, UniProt P81031 1-65, looked up)
Muscarinic toxin 3: LTCVTKNTIFGITTENCPAGQNLCFKRWHYVIPRYTEITRGCAATCPIPENYDSIHCCKTDKCNE

Columns and labels:
[1] = tested on: primate dyskinetic scores; assay: Primate dyskinesia scores; type: in vivo; settings: with L-DOPA; n=4
Description: FIG. 12. Plot of sum of primate dyskinesia scores (median) as a function of time (Fr=11.64, n=4; p<0.01, Friedman's test).
(§1) FIG. 18. […] Data are represented as median.

[2] = tested on: PD disability; assay: Primate PD disability (anti-parkinsonian effect of L-DOPA); type: in vivo; settings: with L-DOPA; n=4; p>0.05
Description: as §1

[3] = tested on: dSPN glutamatergic synapses; assay: Spike-timing-dependent LTD induction (post-pre pairing) in dSPNs, ex vivo corticostriatal slices, perforated-patch or whole-cell recording; type: cell-based, mice
Description: Male C57Bl/6 and FVB mice expressing tdTomato or eGFP under control of either the Drd1 or Drd2 receptor regulatory elements were used. All the mice used for the study were hemizygous for these transgenes. For some experiments, D1-tdTomato BAC mice were crossed with a transgenic line expressing Cre recombinase under control of the ChAT promoter. All mice were 8-10 weeks of age before stereotaxic surgery. Animal use procedures were reviewed and approved by the Northwestern Institutional Animal Care and Use Committee.
Slices were then transferred to a holding chamber containing aCSF. After an incubation period at 34° C. for 30 min, the slices were then kept in the holding chamber at the room temperature for another 30 min before use.
Individual slices were transferred to a recording chamber and were continuously perfused (2-3 ml min^−1) with aCSF for the duration of the experiment. Experiments were performed in the dorsolateral striatum at elevated temperature (30-31° C.).
All the recordings were made using a MultiClamp 700 A amplifier, and signals were filtered at 2 kHz and digitized at 10 kHz. Data were excluded when the series resistance changed >20% over the time course of the experiment. […] Capacitance current was continuously monitored during perforation by applying a 5-10 mV pulse from a holding potential of −70 mV. The amplifier bridge circuit was adjusted to compensate for series resistance and continuously monitored during recordings. Electrode capacitance was also compensated. Data were excluded when the input resistance (Ri) changed >20% over the time course of the experiment.
Data analysis was conducted with Igor Pro 6 (Wavemetrics, Lake Oswego, Oreg.) and Clampfit 9 (Molecular Devices). EPSP amplitude was calculated from 50-60 sweeps immediately before the start of induction and 20-30 min after the end of induction. The change in EPSP amplitude was calculated by averaging EPSP values after the induction and normalized to the average baseline EPSP amplitude. Compiled data were expressed as mean±s.e.m. Statistical tests were performed using Excel (Microsoft, Redmond, Wash.) and SigmaStat (Systat, San Jose, Calif.). Non-parametric Mann-Whitney or Wilcoxon tests were used to assess the experiment results, using a probability threshold of 0.05.
(§2) To determine if M4Rs were modulating synaptic plasticity, a spike-timing-dependent plasticity (STDP) paradigm was used. […] Once identified, neurons were monitored and controlled with perforated-patch recording to preserve intracellular signaling mechanisms and to allow stable, long-term monitoring of synaptic strength (FIG. 1A).
Synaptic plasticity was induced by pairing local stimulation of glutamatergic afferent fibers with postsynaptic spikes evoked by short bursts of intracellular current injection that were repeated at 5 Hz (FIGS. 1B, 4A).

[4] = tested on: iSPNs; assay: Spike-timing-dependent LTD induction (post-pre pairing) in iSPNs, ex vivo slices; type: cell-based, mice; settings: MT3 100 nM
Procedure: Mice were deeply anesthetized intraperitoneally with a mixture of ketamine (50 mg kg−1) and xylazine (4 mg kg−1) and perfused transcardially with 5-10 ml of ice-cold artificial CSF (aCSF) comprising (in mM): 125 NaCl, 2.5 KCl, 1.25 NaH2PO4, 2.0 CaCl2, 1.0 MgCl2, 26 NaHCO3 and 10 glucose (305 mOsm l^−1). Parasagittal corticostriatal slices (250 μm) were cut in ice-cold external solution containing (mM) 110 choline chloride, 26 NaHCO3, 1.25 NaH2PO4, 2.5 KCl, 0.5 CaCl2, 7 MgCl2, 11.6 sodium ascorbate, 3.1 sodium pyruvate and 5 glucose (305 mOsm l^−1). Slices were then transferred to a holding chamber containing aCSF. After an incubation period at 34° C. for 30 min, the slices were then kept in the holding chamber at the room temperature for another 30 min before use.
as §2

Molecule | primate dyskinetic scores [1] | anti-parkinsonian effect of L-DOPA on PD disability [2] | LTD induction in dSPNs ([3]; MT3 100 nM with CNO) | LTD induction in dSPNs (EPSP amplitude) ([3]; MT3 100 nM with physostigmine 10 μM + VU10010 5 μM, 20 repetitions) | LTD induction in dSPNs (EPSP amplitude) ([3]; post-pre pairing, MT3 100 nM along with SCH23390) | LTD induction in iSPNs [4]
Cc1nnc2sc(C(=O)NCc3ccc(-c4cccnc4F)cc3)c(N)c2c1C [VU0476406] | reduction in primate dyskinetic scores | did not occur at the expense of anti-parkinsonian effect of L-DOPA | – | – | – | –
B1 | – | – | LTD was blunted | induction was blunted | blocked induction of LTD; also recorded: LTD was disrupted | LTD was induced

Source: US9987242B2, “Treatment of Levodopa-induced Dyskinesias” (NORTHWESTERN UNIVERSITY, priority 2015, dated 2018)
